The results in this text go back to US20180222961A1 (IMMATICS BIOTECHNOLOGIES, published 2018).

Test [1] concerns the target T1, HLA-B*07:02 (human).
T1 construct: also called peptide-receptive MHC molecules
The experiment in a line: UV-exchange b2m ELISA; exchange-yield grade. The text has this: (§1) Candidate peptides for T cell based therapies according to the present invention were further tested for their MHC binding capacity (affinity). The individual peptide-MHC complexes were produced by UV-ligand exchange, where a UV-sensitive peptide is cleaved upon UV-irradiation, and exchanged with the peptide of interest as analyzed. Only peptide candidates that can effectively bind and stabilize the peptide-receptive MHC molecules prevent dissociation of the MHC complexes. To determine the yield of the exchange reaction, an ELISA was performed based on the detection of the light chain (β2m) of stabilized MHC complexes. The assay was performed as generally described in Rodenko et al. (Rodenko et al., 2006).
(§2) 96 well MAXISorp plates (NUNC) were coated over night with 2 ug/ml streptavidin in PBS at room temperature, washed 4× and blocked for 1 h at 37° C. in 2% BSA containing blocking buffer. Refolded HLA-A*02:01/MLA-001 monomers served as standards, covering the range of 15-500 ng/ml. Peptide-MHC monomers of the UV-exchange reaction were diluted 100-fold in blocking buffer. Samples were incubated for 1 h at 37° C., washed four times, incubated with 2 ug/ml HRP conjugated anti-β2m for 1 h at 37° C., washed again and detected with TMB solution that is stopped with […]. Absorption was measured at 450 nm. Candidate peptides that show a high exchange yield (preferably higher than 50%, most preferred higher than 75%) are generally preferred for a generation and production of antibodies or fragments thereof, and/or T cell receptors or fragments thereof, as they show sufficient avidity to the MHC molecules and prevent dissociation of the MHC complexes.
(An ELISA detects its analyte on a solid surface through an enzyme-linked reagent.)

Test [2] has as its target T2, HLA-A*03:01 (human).
T2 construct: also called peptide-receptive MHC molecules
Kind of test: UV-exchange b2m ELISA; exchange-yield grade.
Description: as §1, §2

In turn, YPGLRGSPM showed a peptide exchange yield in test [1] of 50 to 75%.
RLQEWKALK came in with a peptide exchange yield in test [2] of 50 to 75%.
RLFSWLVNR: in test [2], the peptide exchange yield is 50 to 75%.
Regarding FPFNPLDF, the peptide exchange yield in test [1] lay within 20 to 50%.
On to SVLTSSLVK, for which, in test [2], the peptide exchange yield was in the range of 20 to 50%.
In test [2], RVFTSSIKTK showed a peptide exchange yield of 20 to 50%.
As to RPRSPAGQVA, in test [1], the peptide exchange yield lay in the range of 50 to 75%.
In test [1], RPRSPAGQVAAA yielded a peptide exchange yield of 50 to 75%.
On to SPALHIGSV, for which the peptide exchange yield in test [1] lay within 50 to 75%.
Turning to GPFPLVYVL, in test [1], the peptide exchange yield was in the range of 50 to 75%.
With AAASPLLLL, in test [1], the peptide exchange yield is 20 to 50%.
In turn, AAFVPLLLK displayed a peptide exchange yield in test [2] of 20 to 50%.
Regarding SPGAQRTFFQL, in test [1], the peptide exchange yield was in the range of 50 to 75%.
In turn, LPEQTPLAF yielded a peptide exchange yield in test [1] of 20 to 50%.
In test [2], RLFTSPIMTK gave a peptide exchange yield of 50 to 75%.
The molecule IPTYGRTF yielded a peptide exchange yield in test [1] of 50 to 75%.
On the same count and under the same terms, as for NPDLRRNVL, the figure is 50 to 75%.
In test [1], TPTKETVSL gave a peptide exchange yield of 50 to 75%.
In test [2], KTFTIKRFLAK displayed a peptide exchange yield of 20 to 50%.
Take APLKLSRTPA: the peptide exchange yield in test [1] fell in the range of 50 to 75%.
In test [1], RPRSPAGQVAA registered a peptide exchange yield of 50 to 75%.
For the molecule VLADSVTTK, in test [2], the peptide exchange yield lay within 20 to 50%.
SPMHDRWTF: in test [1], the peptide exchange yield was 50 to 75%.
For SPAPLKLSRTPA, in test [1], the peptide exchange yield was in the range of 20 to 50%.
Same read-out and setting: as for APSTPRITTF, the figure is 50 to 75%.
In test [2], SAAPPSYFR had a peptide exchange yield of 20 to 50%.
Turning to KPIESTLVA, the peptide exchange yield in test [1] is 50 to 75%.
